Measurements taken from article PMC8528956 (Frontiers in Immunology, 2021).

B1: 8H10 IgG (humanized constant domains), directed to the HA trimer interface (antibody, V domains shown)
VH: EVQLQESGEGLVKPGGSLKLSCAASGFTFSNYDMSWVRQTPEKRLEWVAYISSGGDYIYYADTVKGRFTISRDNARNTLYLQMSSLKSEDTAMYYCTRNYYYGSLPVWFAYWGQGTLVTVSG
VL: QAVVTQESALTTSPGETVTLTCRSSTGAVTTSNYANWVQEKPDHLFTGLIGGTNNRAPGVPARFSGSLIGDKAALTITGAQTEDEAIYFCALWYSNHSWVFGGGTKLTVL
notes: source: 293F suspension cells, transient, purified from supernatants (Protein G); copies: 2 + 2
B2: HC45 IgG (humanized constant domains), directed to the vestigial esterase domain (antibody, V domains shown)
VH: QVQLQQPGAELVRPGASVKLSCKASGYTLTTYWMNWFKQRPDQGLEWIGRIDPYDSETHYNQKFKDKAILTVDRSSSTAYMQLSSLTSEDSAVYYCTRFLQITTIIYGMDYWGQGTSVTVSS
VL: DVVMTQTPLSLPVSLGDQASISCRSSQTLVHSNGNTYLHWYLQKPGQSPKLLIYKVSNRFSGVPDRFSGSGSGTDFTLKISRVEAEDLGVYFCSQNTHVPYTFGGGTKLEIK
notes: as for B1
B3: FI6 IgG, stem-directed (antibody, V domains shown)
VH: QVQLVESGGGVVQPGRSLRLSCAASGFTFSTYAMHWVRQAPGKGLEWVAVISYDANYKYYADSVKGRFTISRDNSKNTLYLQMNSLRAEDTAVYYCAKDSQLRSLLYFEWLSQGYFDYWGQGTLVTVSS
VL: not shown
notes: as for B1
B4: HC19 IgG (humanized constant domains), RBS-directed (antibody, V domains shown)
VH: QVQLKESGPGLVAPSQSLSITCTVSGFLLISNGVHWVRQPPGKGLEWLGVIWAGGNTNYNSALMSRVSISKDNSKSQVFLKMKSLQTDDTAMYYCARDFYDYDVFYYAMDYWGQGTSVTVSS
VL: QAVVTQESALTTSPGETVTLTCRSSTGAVTTSNYANWVQEKPDHLFTGLIGGTNNRAPGVPARFSGSLIGDKAALTITGAQTEDEAIYFCALWYSNHWVFGGGTKLTVL
notes: as for B1

target: wild-type H3 A/Hong Kong/1/1968 hemagglutinin, recombinant full-length soluble ectodomain (Influenza A virus A/Hong Kong/1/1968 …, UniProt Q91MA7); experiment: ELISA; conditions: both partners purified

Row | Binder | binding result
1 | B1 | binds
2 | B2 | binds
3 | B3 | binds
4 | B4 | binds
